Each block holds one substance with its values, some of them ahead of it.
Experiments:
[1] = target: ScaE cohesin of R. flavefaciens FD-1; experiment: ELISA; details: read off a plot
[2] = target: dockerin D37 (group 3) of R. flavefaciens FD-1 (Ruminococcus flavefaciens FD-1); experiment: ITC; 10-uL aliquots of 80-180 uM cohesin injected into 20-30 uM thioredoxin-fused dockerin; 308.16 K; 50 mM Na-HEPES pH 7.5, 2 mM CaCl2, 0.5 mM TCEP; single-site model
[3] = target: dockerin D61 (group 6) of R. flavefaciens FD-1 (Ruminococcus flavefaciens FD-1); experiment: as above
[4] = target: group-3 dockerin D37, thioredoxin-fused (pETG-20A) (Ruminococcus flavefaciens FD-1); experiment: ITC; thioredoxin-fused dockerin (20-30 uM) in the cell, cohesin (80-180 uM) injected; 308.16 K; 50 mM Na-HEPES pH 7.5, 2 mM CaCl2, 0.5 mM TCEP; single-site model
[5] = target: group-6 dockerin D61, thioredoxin-fused (pETG-20A) (Ruminococcus flavefaciens FD-1); experiment: as above
[6] = target: group-2 dockerin D35 (ZP_06143271), thioredoxin-fused (pETG-20A) (Ruminococcus flavefaciens FD-1); experiment: as above
[7] = target: ScaH dockerin D49, thioredoxin-fused (pETG-20A) (Ruminococcus flavefaciens FD-1); experiment: as above
ScaH dockerin D49, thioredoxin-fused (pETG-20A) (Ruminococcus flavefaciens FD-1), sequence (main, as listed by the source): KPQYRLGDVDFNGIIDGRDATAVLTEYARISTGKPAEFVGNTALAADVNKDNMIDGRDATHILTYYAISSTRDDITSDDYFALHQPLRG

Substance: dockerin of the peptidase ZP_06142181 (Peptidase-UNK-Doc) G11A; R12A
other: pEC50 ([1]; parent: est. 8.6): 8.6

Substance: ScaC cohesin, His-tagged (pET21a) (domain or fragment)
Ka [4]: 2.69e+08 M⁻¹
Ka [5]: 3.54e+08 M⁻¹

Substance: dockerin of ScaH, ZP_06142361 (Coh-Doc) G11A; R12A; G50A; R51A
other: pEC50 ([1]; parent: est. 10.2): 9.1

Substance: dockerin of ScaH, ZP_06142361 (Coh-Doc) G11A; R12A
other: pEC50 ([1]; parent: est. 10.2): 10

Substance: dockerin of ScaH, ZP_06142361 (Coh-Doc) G50A; R51A
other: pEC50 ([1]; parent: est. 10.2): 9.9

Substance: dockerin of the peptidase ZP_06142181 (Peptidase-UNK-Doc) G50A; R51A
other: pEC50 ([1]; parent: est. 8.6): 8.2

Second part, the substance after the results:

other: pEC50 ([1]; parent: est. 8.6): 7.6
Substance: dockerin of the peptidase ZP_06142181 (Peptidase-UNK-Doc) G11A; R12A; G50A; R51A

Ka [2]: 1e+08 M⁻¹
stoichiometry N [2]: 1
Ka [3]: 1e+08 M⁻¹
stoichiometry N [3]: 1
Substance: ScaC cohesin of R. flavefaciens FD-1 (domain or fragment)

Ka [6]: 6.17e+07 M⁻¹
Ka [7]: 1.56e+06 M⁻¹
Substance: ScaE cohesin, His-tagged (pET21a) (domain or fragment)
